Target: ヒト可溶性CD4 (human soluble CD4 prepared in Example 2, C-terminal FLAG-tag, from COS7 cells) (human) (UniProt P01730)
Experiment: SPR (BIAcore 2000), antibody amine-coupled on CM5, soluble CD4 as analyte

- Kd: 7.58 nM
- koff: 0.000138 s⁻¹
- kon: 18200 M⁻¹ s⁻¹
Substance: 13B8.2抗体 (イムノテック社) (antibody)
